Experimental data as given in publication PMC12650317 (Biomolecules, 2025).

Assays:
[1] = biological target: BVDV NS5A recombinant protein (Bovine viral diarrhea virus 1, RefSeq …, UniProt P19711); assay: ELISA; indirect ELISA (i-ELISA); NS3 or NS5A coated on 96-well plates (10 ug/mL for the panning and serum ELISA); OD450 read; nanobody targeting PRRSV as negative control
[2] = biological target: T1, BVDV NS3 recombinant protein (Bovine viral diarrhea virus 1, RefSeq …); assay: as above
T1 chain: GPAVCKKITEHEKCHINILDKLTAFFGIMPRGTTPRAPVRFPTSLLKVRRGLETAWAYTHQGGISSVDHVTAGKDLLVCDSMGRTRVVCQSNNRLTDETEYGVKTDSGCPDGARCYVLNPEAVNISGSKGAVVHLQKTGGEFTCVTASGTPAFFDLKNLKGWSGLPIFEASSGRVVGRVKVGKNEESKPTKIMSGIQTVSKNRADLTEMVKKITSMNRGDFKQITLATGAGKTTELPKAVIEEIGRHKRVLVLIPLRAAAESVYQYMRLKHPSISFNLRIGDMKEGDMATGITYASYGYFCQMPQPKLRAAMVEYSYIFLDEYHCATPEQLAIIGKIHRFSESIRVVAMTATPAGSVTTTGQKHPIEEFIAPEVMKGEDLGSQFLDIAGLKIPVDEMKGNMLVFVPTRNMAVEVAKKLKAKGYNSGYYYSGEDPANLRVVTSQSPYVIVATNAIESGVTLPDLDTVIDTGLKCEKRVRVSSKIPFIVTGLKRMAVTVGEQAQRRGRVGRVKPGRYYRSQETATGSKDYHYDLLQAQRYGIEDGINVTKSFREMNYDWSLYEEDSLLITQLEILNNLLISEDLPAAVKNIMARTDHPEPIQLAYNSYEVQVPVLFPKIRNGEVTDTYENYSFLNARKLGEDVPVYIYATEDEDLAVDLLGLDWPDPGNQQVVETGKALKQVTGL

Sequence of BVDV NS5A recombinant protein (P19711 2774-3269): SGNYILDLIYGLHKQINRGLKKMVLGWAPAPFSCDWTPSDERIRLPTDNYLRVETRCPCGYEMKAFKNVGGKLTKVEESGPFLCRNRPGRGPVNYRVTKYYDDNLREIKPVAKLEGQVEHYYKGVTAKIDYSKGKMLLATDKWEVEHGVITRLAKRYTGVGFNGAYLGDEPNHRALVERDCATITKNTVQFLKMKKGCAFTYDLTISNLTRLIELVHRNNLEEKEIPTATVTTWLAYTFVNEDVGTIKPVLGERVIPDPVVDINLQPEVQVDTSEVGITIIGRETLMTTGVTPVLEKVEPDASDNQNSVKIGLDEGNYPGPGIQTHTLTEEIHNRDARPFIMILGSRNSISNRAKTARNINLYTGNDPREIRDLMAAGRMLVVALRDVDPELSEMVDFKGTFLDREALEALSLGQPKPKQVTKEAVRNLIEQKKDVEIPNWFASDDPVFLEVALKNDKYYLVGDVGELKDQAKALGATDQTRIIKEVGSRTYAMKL

B1: Nb10 (VHH)
VHH: QVQLQESGGGLVQPGGSLRLSCAASGETARSGACGWFRQAPGKEREGVASINRYGFRTYADSVKGRFTISTDNAKNTVDLQMSNLRPEDTAAYYCAADSLTFWSAPCCSSTSPGTWGQGTQVTVSS
notes: also called nanobody Nb10
- binding result [1]: binds

B2: Nb15 (VHH)
VHH: QVQLQESGGGLVQPGGSLRLSCAASGGSLTYYCMAWFRQTPGKEREWVSCISNYGFTINYADSVKGRFSISRDNAKNTVYLAMHIPEPEDTGVYVCADLSFEHLYYCSTAQSEGSEWGQGTQVTVSS
notes: also called nanobody Nb15
- binding result [1]: binds

B3: Nb22 (VHH)
VHH: QVQLQESGGGLVQPGGSLRLSCRASGYTSCMAWFRQAPKEREGVASINSDGSTAYADSVQGRFTISRDNTMNTLYLQMNSLKPEDTAMYYCAAERPSSCLPRNIWVDTNYWGQGTQVTVSS
notes: also called nanobody Nb22
- binding result [2]: binds

B4: Nb19 (VHH)
VHH: QVQLQESGGGLVQPGGSLRLSCAASGFTFQTYSMGWVRQAPGKGLEWVSSISGDGSTYYSDSVKGRFTISTDNANTLYLQMNSLKSEDTAVYYCAKERSPADYRNWLMPYWGKGTLVTVSS
notes: also called nanobody Nb19
- binding result [2]: binds

B5: Nb11 (VHH)
VHH: QVQLQESGGGSVQPGGSRRLSCEGSGETLGYRRQTWFRQAPGKEREGVSCISSLDDGTYYKDSVKGRFTISRDNANKMVYLQMNSLEPEDTAIYYCAADPERSSYSGPLGSLGYSYWGQGTQVTVSS
notes: also called nanobody Nb11
- binding result [1]: binds
